# Like-named read-outs stand apart in the source and are kept apart here.
# T1: GST-tagged AIM2 (Invitrogen) (UniProt O14862 1-343)
# T1 sequence (looked up): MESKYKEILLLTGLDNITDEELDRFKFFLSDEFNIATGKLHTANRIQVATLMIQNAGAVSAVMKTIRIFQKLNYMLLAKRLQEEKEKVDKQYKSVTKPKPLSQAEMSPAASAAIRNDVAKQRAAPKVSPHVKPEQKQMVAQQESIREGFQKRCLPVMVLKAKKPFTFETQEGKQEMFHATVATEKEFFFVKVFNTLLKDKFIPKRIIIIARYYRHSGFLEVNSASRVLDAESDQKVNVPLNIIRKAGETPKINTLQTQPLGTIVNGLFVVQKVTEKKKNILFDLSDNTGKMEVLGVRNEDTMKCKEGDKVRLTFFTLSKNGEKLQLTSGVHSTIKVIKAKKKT
# Assays:
# Test in all cases: BLI
# [1] = biological target: T1, GST-tagged AIM2 (Invitrogen)
# [2] = biological target: T1, GST-tagged AIM2 (Invitrogen); remark: listed apart in the source
# [3] = biological target: T1, GST-tagged AIM2 (Invitrogen); remark: listed apart in the source
# [4] = biological target: T1, GST-tagged AIM2 (Invitrogen); remark: listed apart in the source
# [5] = biological target: T1, GST-tagged AIM2 (Invitrogen); remark: listed apart in the source
Binder,Kd [4] [nM],koff [4] [s⁻¹],kon [4] [M⁻¹ s⁻¹],further results
"Recombinant HMGB1 (disulfide HMGB1, not treated with DTT) (natural protein, human, UniProt P09429 1-215, looked up, disulfide bond between cysteines 23 and 45 (the paper calls the protein without DTT disulfide HMGB1)) MGKGDPKKPRGKMSSYAFFVQTCREEHKKKHPDASVNFSEFSKKCSERWKTMSAKEKGKFEDMAKADKARYEREMKTYIPPKGETKKKFKDPNAPKRPPSAFFLFCSEYRPKIKGEHPGLSIGDVAKKLGEMWNNTAADDKQPYEKKAAKLKEKYEKDIAAYRAKGKPDAAKKGVVKAEKSKKKKEEEEDEEDEEDEEEEEDEEDEDEEEDDDDE",23,0.00034,14000,Kd [1]: 20 nM; koff [1]: 0.00034 s⁻¹; kon [1]: 17000 M⁻¹ s⁻¹; Kd [2]: 8 nM; koff [2]: 0.00014 s⁻¹; kon [2]: 17000 M⁻¹ s⁻¹; Kd [3]: 25 nM; koff [3]: 0.00033 s⁻¹; kon [3]: 13000 M⁻¹ s⁻¹
"Recombinant HMGB1(C23S) (natural protein, human, UniProt P09429 1-215, looked up) MGKGDPKKPRGKMSSYAFFVQTSREEHKKKHPDASVNFSEFSKKCSERWKTMSAKEKGKFEDMAKADKARYEREMKTYIPPKGETKKKFKDPNAPKRPPSAFFLFCSEYRPKIKGEHPGLSIGDVAKKLGEMWNNTAADDKQPYEKKAAKLKEKYEKDIAAYRAKGKPDAAKKGVVKAEKSKKKKEEEEDEEDEEDEEEEEDEEDEDEEEDDDDE",12,0.0003,25000,
"Recombinant HMGB1(C45S) (natural protein, human, UniProt P09429 1-215, looked up) MGKGDPKKPRGKMSSYAFFVQTCREEHKKKHPDASVNFSEFSKKSSERWKTMSAKEKGKFEDMAKADKARYEREMKTYIPPKGETKKKFKDPNAPKRPPSAFFLFCSEYRPKIKGEHPGLSIGDVAKKLGEMWNNTAADDKQPYEKKAAKLKEKYEKDIAAYRAKGKPDAAKKGVVKAEKSKKKKEEEEDEEDEEDEEEEEDEEDEDEEEDDDDE",13,0.00036,27000,
"Recombinant HMGB1, fully reduced all-thiol form (5 mM DTT) (natural protein, human, UniProt P09429 1-215, looked up) MGKGDPKKPRGKMSSYAFFVQTCREEHKKKHPDASVNFSEFSKKCSERWKTMSAKEKGKFEDMAKADKARYEREMKTYIPPKGETKKKFKDPNAPKRPPSAFFLFCSEYRPKIKGEHPGLSIGDVAKKLGEMWNNTAADDKQPYEKKAAKLKEKYEKDIAAYRAKGKPDAAKKGVVKAEKSKKKKEEEEDEEDEEDEEEEEDEEDEDEEEDDDDE",,,,Kd [5]: 13 nM; koff [5]: 0.00038 s⁻¹; kon [5]: 30000 M⁻¹ s⁻¹
"Recombinant HMGB1 A box (disulfide form, not treated with DTT) (domain or fragment, disulfide form (the paper calls the A box without DTT its disulfide form)) MGKGDPKKPRGKMSSYAFFVQTCREEHKKKHPDASVNFSEFSKKCSERWKTMSAKEKGKFEDMAKADKARYEREMKTYI",41,0.00261,64000,
